Assay results published in patent EP4722254A1 (Sunshine Guojian Pharmaceutical (Shanghai) Co., Ltd., dated 2026).
Several values for one entry are separate records, joined by “and”; a condition that tells them apart may be missing. Equal entries are not always repeated.

B1: anti-FGFR2/PD-1 bispecific antibody a (bispecific antibody, human IgG1, kappa)
heavy: not shown
light: EIVLTQSPATLSLSPGERATLSCRASSSVNYMYWYQQKPGQAPRPWIYLTSNRATGVPARFSGSGSGTDYTLTISSLEPEDFAVYYCQQWSSNPYTFGQGTKLEIKRTVAAPSVFIFPPSDEQLKSGTASVVCLLNNFYPREAKVQWKVDNALQSGNSQESVTEQDSKDSTYSLSSTLTLSKADYEKHKVYACEVTHQGLSSPVTKSFNRGEC
notes: Anti-FGFR2 IgG with an anti-PD-1 scFv (VL-L1-VH) on the C-terminus of each heavy chain; wild-type Fc; also called anti-FGFR2/PD-1 bispecific antibody molecule a
B2: anti-FGFR2/PD-1 bispecific antibody d (bispecific antibody, human IgG1, kappa)
heavy: not shown
light: B1 light
notes: Anti-FGFR2 IgG with an anti-PD-1 scFv in VH-L1-VL order on the C-terminus of each heavy chain; also called anti-FGFR2/PD-1 bispecific antibody molecule d
B3: anti-FGFR2/PD-1 bispecific antibody b (bispecific antibody, human IgG1, kappa)
heavy: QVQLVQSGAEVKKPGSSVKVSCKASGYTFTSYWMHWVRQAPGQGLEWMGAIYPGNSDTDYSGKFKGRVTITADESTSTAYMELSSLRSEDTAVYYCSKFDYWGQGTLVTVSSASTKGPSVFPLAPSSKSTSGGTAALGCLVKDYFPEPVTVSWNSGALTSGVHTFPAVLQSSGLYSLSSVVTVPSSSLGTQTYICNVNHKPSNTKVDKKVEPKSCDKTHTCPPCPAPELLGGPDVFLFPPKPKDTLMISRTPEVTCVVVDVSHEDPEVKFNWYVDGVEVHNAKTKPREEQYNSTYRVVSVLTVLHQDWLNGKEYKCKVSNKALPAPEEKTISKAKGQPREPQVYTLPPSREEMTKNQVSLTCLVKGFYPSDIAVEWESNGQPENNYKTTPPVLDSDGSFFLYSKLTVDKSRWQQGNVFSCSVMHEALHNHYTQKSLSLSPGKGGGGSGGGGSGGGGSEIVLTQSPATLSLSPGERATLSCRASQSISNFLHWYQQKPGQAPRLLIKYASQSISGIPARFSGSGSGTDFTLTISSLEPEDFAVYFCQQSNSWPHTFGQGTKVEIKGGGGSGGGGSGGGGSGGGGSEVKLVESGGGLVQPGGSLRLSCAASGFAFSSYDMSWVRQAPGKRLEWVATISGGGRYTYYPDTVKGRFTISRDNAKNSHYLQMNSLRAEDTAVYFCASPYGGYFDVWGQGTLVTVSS
light: B1 light
notes: also called anti-FGFR2/PD-1 bispecific antibody molecule b
B4: anti-FGFR2 monoclonal antibody (antibody, human IgG1, kappa, V domains shown)
VH: QVQLVQSGAEVKKPGSSVKVSCKASGYTFTSYWMHWVRQAPGQGLEWMGAIYPGNSDTDYSGKFKGRVTITADESTSTAYMELSSLRSEDTAVYYCSKFDYWGQGTLVTVSS
VL: EIVLTQSPATLSLSPGERATLSCRASSSVNYMYWYQQKPGQAPRPWIYLTSNRATGVPARFSGSGSGTDYTLTISSLEPEDFAVYYCQQWSSNPYTFGQGTKLEIKR
notes: also called positive control anti-FGFR2 monoclonal antibody; anti-FGFR2 mAb

What was measured:
[1] = target: T1, Recombinant Human-FGFR2-His protein (human, UniProt P21802-3 22-378, limits assumed); test: ELISA, Human-FGFR2-His coated, anti-human Fc-HRP detection
T1 construct: Bought protein; not shown: His tag

[2] = target: T2, PD-1 expressed on the surface of Jurkat-PD-1-NFAT-luc cells (UniProt Q15116 25-288, limits assumed); test: cell-based or functional assay
[3] = target: T2, PD-1 expressed on the surface of …; test: flow cytometry on Jurkat-PD-1-NFAT-luc cells, anti-human Fab-FITC detection
[4] = target: T3, Recombinant Human-PD-1-His protein (human, UniProt Q15116 25-167, limits assumed); test: ELISA, Human-PD-1-His coated, anti-human Fc-HRP detection
T3 construct: not shown: His tag

FGFR2 on SNU-16 cells = FGFR2 on SNU-16 cells (human, UniProt P21802 22-821); test: cell-based or functional assay
Sequence of FGFR2 on SNU-16 cells (P21802 22-821): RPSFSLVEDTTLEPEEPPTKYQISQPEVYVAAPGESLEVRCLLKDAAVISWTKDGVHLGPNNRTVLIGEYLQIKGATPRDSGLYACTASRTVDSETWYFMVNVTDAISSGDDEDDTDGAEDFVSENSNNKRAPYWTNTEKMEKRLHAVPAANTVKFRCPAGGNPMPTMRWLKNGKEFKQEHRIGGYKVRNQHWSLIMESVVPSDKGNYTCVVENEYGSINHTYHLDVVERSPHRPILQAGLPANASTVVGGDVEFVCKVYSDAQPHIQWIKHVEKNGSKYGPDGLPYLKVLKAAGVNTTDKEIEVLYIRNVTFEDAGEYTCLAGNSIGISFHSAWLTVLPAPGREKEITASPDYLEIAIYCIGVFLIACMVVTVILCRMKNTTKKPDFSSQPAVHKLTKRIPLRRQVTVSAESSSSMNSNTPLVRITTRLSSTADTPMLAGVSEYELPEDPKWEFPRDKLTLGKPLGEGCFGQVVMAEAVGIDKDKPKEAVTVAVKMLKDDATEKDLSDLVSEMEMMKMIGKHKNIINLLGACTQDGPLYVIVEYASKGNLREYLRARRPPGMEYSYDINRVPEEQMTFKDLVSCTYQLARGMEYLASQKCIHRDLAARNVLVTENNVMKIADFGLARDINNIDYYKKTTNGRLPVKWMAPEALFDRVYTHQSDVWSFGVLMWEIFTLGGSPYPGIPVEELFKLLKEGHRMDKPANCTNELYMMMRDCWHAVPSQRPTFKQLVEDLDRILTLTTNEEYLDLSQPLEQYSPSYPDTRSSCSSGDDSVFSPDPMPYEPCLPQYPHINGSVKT

T1 sequence (P21802 other isoform, or with tags, fused parts or gaps limits assumed): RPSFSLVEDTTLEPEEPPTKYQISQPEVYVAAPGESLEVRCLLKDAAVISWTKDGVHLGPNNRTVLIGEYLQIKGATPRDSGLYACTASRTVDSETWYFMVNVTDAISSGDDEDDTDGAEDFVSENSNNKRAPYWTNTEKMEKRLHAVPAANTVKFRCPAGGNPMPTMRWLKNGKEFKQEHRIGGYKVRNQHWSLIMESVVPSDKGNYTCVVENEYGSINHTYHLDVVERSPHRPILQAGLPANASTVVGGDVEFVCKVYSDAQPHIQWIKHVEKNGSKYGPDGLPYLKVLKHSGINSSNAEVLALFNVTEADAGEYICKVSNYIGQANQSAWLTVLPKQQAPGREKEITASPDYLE
T2 sequence (Q15116 25-288 limits assumed): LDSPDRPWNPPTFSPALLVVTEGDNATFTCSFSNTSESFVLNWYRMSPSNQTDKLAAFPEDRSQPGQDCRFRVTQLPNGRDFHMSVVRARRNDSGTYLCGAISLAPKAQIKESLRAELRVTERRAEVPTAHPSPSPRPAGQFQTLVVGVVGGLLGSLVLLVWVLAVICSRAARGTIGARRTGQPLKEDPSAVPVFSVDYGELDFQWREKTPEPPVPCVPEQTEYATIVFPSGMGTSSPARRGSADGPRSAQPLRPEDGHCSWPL
T3 sequence (Q15116 25-167 limits assumed): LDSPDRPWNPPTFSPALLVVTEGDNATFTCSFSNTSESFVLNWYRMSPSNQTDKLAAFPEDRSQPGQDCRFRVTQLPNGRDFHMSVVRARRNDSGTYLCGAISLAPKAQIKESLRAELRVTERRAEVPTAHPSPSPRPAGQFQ

Binder | EC50 [1] | IC50 for the blockade of PD-1 and PD-L1 binding (NFAT-luc reporter luminescence) [2] [nM] | EC50 [3] [nM] | EC50 [4] | EC50 of ADCC (NK cell killing of SNU-16 cells, LDH release) (FGFR2 on SNU-16 cells) [nM]
B1 | 0.0568 nM | 0.481 | 0.482 | 0.122 nM and 0.16 nM | –
B2 | 0.0615 nM | – | – | 0.356 nM | –
B3 | 0.0512 nM | 2.35 | 0.634 | 0.141 nM | 4.62
B4 | 0.0392 nM and 0.0297 nM | – | – | – | 3.03
